# Data: patent publication US20210198360 (published 2021)
# T1: human PD-L2-Fc (human, UniProt Q9BQ51)
# T1 chain: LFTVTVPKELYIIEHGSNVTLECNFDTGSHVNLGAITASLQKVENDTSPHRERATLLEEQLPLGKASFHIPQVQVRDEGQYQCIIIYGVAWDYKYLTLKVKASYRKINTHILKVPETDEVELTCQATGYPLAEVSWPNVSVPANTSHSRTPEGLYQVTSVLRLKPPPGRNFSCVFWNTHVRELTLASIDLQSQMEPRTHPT
# T2: human PD-L2-HIS (human, UniProt Q9BQ51)
# T2 chain: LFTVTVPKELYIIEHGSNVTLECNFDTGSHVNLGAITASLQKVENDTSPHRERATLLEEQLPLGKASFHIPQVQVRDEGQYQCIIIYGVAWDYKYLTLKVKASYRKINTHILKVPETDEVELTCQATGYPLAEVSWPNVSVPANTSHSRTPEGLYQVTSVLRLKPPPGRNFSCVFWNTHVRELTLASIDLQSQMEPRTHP
# T3: mouse PD-L2-Fc (mouse, UniProt Q9WUL5)
# T3 chain: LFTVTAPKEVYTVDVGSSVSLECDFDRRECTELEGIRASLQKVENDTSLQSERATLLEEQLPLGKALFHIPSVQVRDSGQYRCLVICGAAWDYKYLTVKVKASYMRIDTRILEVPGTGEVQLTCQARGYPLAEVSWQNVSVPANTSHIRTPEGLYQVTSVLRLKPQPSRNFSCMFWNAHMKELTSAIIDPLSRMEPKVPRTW
# B1: ADI-20227 (antibody, V domains shown)
# VH: QVQLQESGPGLVKPSQTLSLTCTVSGGSIVSGGLYWSWIRQHPGKGLEWIGYIYYAGVTYYNPSLKSRVTISVDTSKNQFSLKLSSVTAADTAVYYCARGPRMGLAGMDVWGQGTTVTVSS
# VL: DIQMTQSPSSVSASVGDRVTITCRASQGISSWLAWYQQKPGKAPKLLIYAASSLQSGVPSRFSGSGSGTDFTLTISSLQPEDFATYYCQQANSFPITFGGGTKVEIK
# B2: ADI-16403 (antibody, V domains shown)
# VH: EVQLVESGGGLVQPGGSLRLSCAASGFTFSSYWMSWVRQAPGKGLEWVANIKSDGSEKYYVDSVKGRFTISRDNAKNSLYLQMNSLRAEDTAVYYCARVTYWADYMDVWGKGTTVTVSS
# VL: DIQMTQSPSTLSASVGDRVTITCRASQSISSWLAWYQQKPGKAPKLLIYKASSLESGVPSRFSGSGSGTEFTLTISSLQPDDFATYYCQQSGSLPPTFGGGTKVEIK
# B3: ADI-20803 (antibody, V domains shown)
# VH: QVQLVQSGAEVKKPGSSVKVSCKASGGTFRLYAISWVRQAPGQGLEWMGSIIPGFGSANYAQKFQGRVTITADESTSTAYMELSSLRSEDTAVYYCARDGGGGTSAYSFDPWGQGTLVTVSS
# VL: EIVLTQSPATLSLSPGERATLSCRASQSVSSYLAWYQQKPGQAPRLLIYDASNRATGIPARFSGSGSGTDFTLTISSLEPEDFAVYYCQQSINFPYTFGGGTKVEIK
# B4: ADI-20227 Fab (antibody, V domains shown)
# VH: B1 VH
# VL: B1 VL
# B5: ADI-20803 Fab (antibody, V domains shown)
# VH: B3 VH
# VL: B3 VL
# How the values were obtained:
# human PD-L2-Fc [1] = target: T1, human PD-L2-Fc; experiment: BLI, bivalent
# human PD1-Fc = human PD1-Fc (human, UniProt Q15116); experiment: BLI, bivalent
# Chain of human PD1-Fc (Q15116 25-170): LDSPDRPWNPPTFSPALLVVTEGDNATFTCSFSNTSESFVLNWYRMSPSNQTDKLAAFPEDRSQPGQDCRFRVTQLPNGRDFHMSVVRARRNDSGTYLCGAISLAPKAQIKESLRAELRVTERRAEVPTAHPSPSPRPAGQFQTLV
# human PD-L2-HIS = target: T2, human PD-L2-HIS; experiment: BLI, monovalent
# human PD-L1-Fc [2] = target: human PD-L1-Fc (human); experiment: BLI
# Chain of human PD-L1-Fc (human) (chain, as listed by the source): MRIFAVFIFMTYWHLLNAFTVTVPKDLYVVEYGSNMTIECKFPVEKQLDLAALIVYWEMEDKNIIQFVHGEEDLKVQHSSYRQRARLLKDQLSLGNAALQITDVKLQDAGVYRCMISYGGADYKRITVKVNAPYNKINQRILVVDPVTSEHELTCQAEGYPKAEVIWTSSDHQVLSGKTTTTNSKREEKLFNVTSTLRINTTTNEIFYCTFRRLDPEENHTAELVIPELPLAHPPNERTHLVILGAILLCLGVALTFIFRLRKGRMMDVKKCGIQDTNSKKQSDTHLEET
# mouse PD-L1-Fc [3] = target: T4, mouse PD-L1-Fc (mouse, UniProt Q9EP73); experiment: BLI, bivalent
# T4 sequence (Q9EP73 19-239): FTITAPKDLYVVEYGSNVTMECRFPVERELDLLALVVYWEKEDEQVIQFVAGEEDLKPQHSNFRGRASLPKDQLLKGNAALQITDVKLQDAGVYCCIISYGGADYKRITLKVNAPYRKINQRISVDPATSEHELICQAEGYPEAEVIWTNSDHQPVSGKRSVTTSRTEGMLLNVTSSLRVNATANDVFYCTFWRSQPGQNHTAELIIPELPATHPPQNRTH
# mouse PD-L2-Fc = target: T3, mouse PD-L2-Fc; experiment: BLI, bivalent
# mouse PD-L1-Fc [4] = target: T4, mouse PD-L1-Fc; experiment: BLI, bivalent; remark: listed apart in the source
# human PD-L1-Fc [5] = target: human PD-L1-Fc (human); experiment: BLI, bivalent
# human PD-L2-Fc [6] = target: T1, human PD-L2-Fc; experiment: BLI, monovalent
Binder,binding result (human PD-L2-Fc [1]),binding result (human PD1-Fc),binding result (human PD-L2-HIS),Kd (human PD-L1-Fc [2]) [nM],Kd (mouse PD-L1-Fc [3]) [nM],binding result (mouse PD-L2-Fc),binding result (mouse PD-L1-Fc [4]),Kd (human PD-L1-Fc [5]) [nM],binding result (human PD-L2-Fc [6])
B1,no binding,no binding,no binding,0.179,0.101,no binding,–,–,–
B2,no binding,no binding,–,–,–,no binding,no binding,–,–
B3,no binding,no binding,no binding,–,–,no binding,–,0.188,–
B4,–,–,–,–,–,–,–,–,no binding
B5,–,–,–,–,–,–,–,–,no binding
